Ends that are not written are not given here. * marks the point of attachment. Biotin = O=C1N[C@H]2[C@H](CS[C@H]2CCCCC(=O)*)N1
B1: Maltose Binding Protein (MBP) fused to amino acids 1-120 of nNOS (other, UniProt P29475 1-120, looked up, not shown: large carriers)
chain: MEDHMFGVQQIQPNVISVRLFKRKVGGLGFLVKERVSKPPVIISDLIRGGAAEQSGLIQAGDIILAVNGRPLVDLSYDSALEVLRGIASETHVVLILRGPEGFTTHLETTFTGDGTPKTI
notes: range 1-120; also called MBP-nNOS; internal PL of nNOS
B2: TatTAX: TAT transporter sequence coupled to the C-terminal 9 amino acids of Tax (peptide)
peptide: YGRKKRRQRRREKHFRETEV
modifications: also: N-terminal biotin when used as labelled ligand
B3: ESSGTQSPKRHSGSYLVTSV peptide (peptide)
peptide: Biotin-ESSGTQSPKRHSGSYLVTSV

Experiments:
GST-PSD95 PDZ domain 1 [1] = molecular target: T1, GST-PSD95 PDZ domain 1 (human); assay: G assay with MBP-nNOS, anti-MBP-HRP detection, FIG. 11
T1 construct: also called PSD95 d1; PSD-95 d1
Protocol: This protein was used in the G assay in place of a labeled peptide to assess the interaction between PSD95 domains 1 and 2 and nNOS, and detection was performed using an HRP-conjugated antibody against MBP. […] MBP/PSD95 indicates a negative control containing MBP without the nNOS sequences.

GST-PSD95 PDZ domain 2 [2] = molecular target: T2, GST-PSD95 PDZ domain 2 (human); assay: G assay
T2 construct: also called PSD95 d2; PSD-95 d2

GST-PSD95 PDZ domain 1 [3] = molecular target: T1, GST-PSD95 PDZ domain 1; assay: G assay
GST-PSD95 PDZ domain 3 = molecular target: T3, GST-PSD95 PDZ domain 3 (human); assay: G assay
T3 construct: also called PSD95 d3; PSD95 domain 3

GST-PSD95 PDZ domain 2 [4] = molecular target: T2, GST-PSD95 PDZ domain 2; assay: G assay competition against NMDAR2A or R2B peptide, FIG. 10

T3 sequence (chain, as listed by the source): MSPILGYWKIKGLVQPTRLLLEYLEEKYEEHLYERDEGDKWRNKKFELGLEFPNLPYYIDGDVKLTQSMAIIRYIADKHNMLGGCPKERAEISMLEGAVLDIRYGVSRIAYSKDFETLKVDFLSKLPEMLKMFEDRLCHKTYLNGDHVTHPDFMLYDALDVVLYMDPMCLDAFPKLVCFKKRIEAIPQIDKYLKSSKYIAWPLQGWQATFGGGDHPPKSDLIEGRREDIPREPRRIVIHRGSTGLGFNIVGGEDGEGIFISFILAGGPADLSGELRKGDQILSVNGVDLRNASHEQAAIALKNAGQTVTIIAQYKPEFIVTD
T1 sequence (chain, as listed by the source): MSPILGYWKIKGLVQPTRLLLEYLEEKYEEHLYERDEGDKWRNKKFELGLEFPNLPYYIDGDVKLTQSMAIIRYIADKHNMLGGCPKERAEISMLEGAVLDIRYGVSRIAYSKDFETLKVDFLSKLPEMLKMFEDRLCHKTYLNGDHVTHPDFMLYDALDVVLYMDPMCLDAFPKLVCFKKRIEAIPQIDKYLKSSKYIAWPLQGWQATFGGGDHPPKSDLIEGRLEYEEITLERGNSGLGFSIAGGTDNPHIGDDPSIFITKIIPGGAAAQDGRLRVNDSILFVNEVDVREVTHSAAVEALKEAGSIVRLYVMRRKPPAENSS

Row | Binder | binding result (GST-PSD95 PDZ domain 1 [1]) | Average OD (GST-PSD95 PDZ domain 2 [2]) [OD] | Average OD (GST-PSD95 PDZ domain 1 [3]) [OD] | Average OD (GST-PSD95 PDZ domain 3) [OD] | IC50 (GST-PSD95 PDZ domain 2 [4]) [nM]
1 | B1 | no binding |  |  |  | 
2 | B2 |  | 2.79 | 2.81 | 2.93 | 100 to 1000
3 | B3 |  |  |  | 0.7 | 

— US20110039758A1 (published 2011)
